Test results: US20200181259A1
Where two headings read alike, the source gives them in different places.

Legend:
[1] = molecular target: human CD47 overexpressed on CHO cells (human) (UniProt Q08722); assay: flow cytometry competition on CHO-hCD47 cells against 200 nM mouse Fc-labelled SIRPα
[2] = molecular target: human CD47 overexpressed on CHO cells (human) (UniProt Q08722); assay: as above; remark: listed apart in the source

B1: AB6.12, control humanized anti-CD47 antibody transiently expressed in 293 HEK cells (antibody, from another filing, V domains shown)
VH: QMQLVQSGAEVKKTGSSVKVSCKASGFNIKDYYLHWVRQAPGQALEWMGWIDPDQGDTEYAQKFQDRVTITRDRSMSTAYMELSSLRSEDTAMYYCNAAYGSSSYPMDYWGQGTTVTV
VL: NIQMTQSPSAMSASVGDRVTITCKASQDIHRYLSWFQQKPGKVPKHLIYRANRLVSGVPSRFSGSGSGTEFTLTISSLQPEDFATYYCLQYDEFPYTFGGGTKVEIK
IC50 [1]: 3.38 nM
IC50 [2]: 1.77 nM
